Positions count from the first letter of the chain named.
Key:
Experiment in all cases: holdup assay
Set-up in all cases: key: below the threshold = too weak to quantify, mostly under pKd 3.1 to 4
MAGI2_3, Q86UL8 = target: MAGI2_3, Q86UL8
Inadl_1, Q8NI35 = target: Inadl_1, Q8NI35
PCLO, Q9Y6V0 = target: T1, PCLO, Q9Y6V0
T1 sequence (Q9Y6V0 4491-4600, limits assumed, looked up): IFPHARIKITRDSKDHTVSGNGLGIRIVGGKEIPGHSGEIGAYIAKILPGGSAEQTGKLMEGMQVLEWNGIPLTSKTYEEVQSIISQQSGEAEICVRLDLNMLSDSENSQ

DLG4_2, P78352 = target: DLG4_2, P78352
FRMPD1, Q5SYB0 = target: T2, FRMPD1, Q5SYB0
T2 sequence (Q5SYB0 52-145, limits assumed, looked up): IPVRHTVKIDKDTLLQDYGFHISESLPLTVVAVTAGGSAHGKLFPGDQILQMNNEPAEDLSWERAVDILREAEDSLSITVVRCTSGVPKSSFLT

ARHGEF11, O15085 = target: T3, ARHGEF11, O15085
T3 sequence (O15085 42-136, limits assumed, looked up): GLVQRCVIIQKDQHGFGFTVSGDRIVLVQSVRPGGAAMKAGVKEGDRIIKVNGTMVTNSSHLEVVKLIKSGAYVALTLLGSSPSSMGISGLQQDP

APBA1_2, Q02410 = target: T4, APBA1_2, Q02410
T4 sequence (Q02410 742-832, limits assumed, looked up): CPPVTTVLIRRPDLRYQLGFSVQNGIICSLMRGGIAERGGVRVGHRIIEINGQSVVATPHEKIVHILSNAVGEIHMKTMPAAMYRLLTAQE

GRIP2_5, Q9C0E4 = target: GRIP2_5, Q9C0E4
FRMPD4, Q14CM0 = target: FRMPD4, Q14CM0
GRIP1_3, Q9Y3R0 = target: T5, GRIP1_3, Q9Y3R0
T5 sequence (Q9Y3R0 247-346, limits assumed, looked up): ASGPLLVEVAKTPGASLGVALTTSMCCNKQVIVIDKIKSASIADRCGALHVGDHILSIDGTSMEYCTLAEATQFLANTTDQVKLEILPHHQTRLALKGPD

GRID2IP_1, A4D2P6 = target: GRID2IP_1, A4D2P6
SNTG2, Q9NY99 = target: T6, SNTG2, Q9NY99
T6 sequence (Q9NY99 68-166, limits assumed, looked up): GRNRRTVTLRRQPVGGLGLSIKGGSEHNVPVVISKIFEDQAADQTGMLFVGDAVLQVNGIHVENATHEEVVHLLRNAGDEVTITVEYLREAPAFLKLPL

GRASP, Q7Z6J2 = target: GRASP, Q7Z6J2
FRMPD2_2, Q68DX3 = target: FRMPD2_2, Q68DX3
Inadl_10, Q8NI35 = target: Inadl_10, Q8NI35
NHERF4_4, Q86UT5 = target: NHERF4_4, Q86UT5
DLG2_3, Q15700 = target: DLG2_3, Q15700
LIN7A, O14910 = target: T7, LIN7A, O14910
T7 sequence (O14910 103-200, limits assumed, looked up): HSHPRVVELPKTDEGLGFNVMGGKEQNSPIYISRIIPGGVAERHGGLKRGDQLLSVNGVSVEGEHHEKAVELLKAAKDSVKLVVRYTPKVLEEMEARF

AHNAK1, Q09666 = target: AHNAK1, Q09666
LIN7B, Q9HAP6 = target: T8, LIN7B, Q9HAP6
T8 sequence (Q9HAP6 88-185, limits assumed, looked up): T7 sequence (O14910 103-200, limits assumed, looked up) with S2A, V20I, I35V, E42D, H65Q, K77Q, D78G, K89R

DLG1_1, Q12959 = target: DLG1_1, Q12959
GRIP1_7, Q9Y3R0 = target: T9, GRIP1_7, Q9Y3R0
T9 sequence (Q9Y3R0 999-1096, limits assumed, looked up): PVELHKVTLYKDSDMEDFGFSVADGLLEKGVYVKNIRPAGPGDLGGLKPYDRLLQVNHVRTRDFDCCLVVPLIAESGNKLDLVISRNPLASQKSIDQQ

PTPN3, P26045 = target: PTPN3, P26045
MPP2, Q14168 = target: T10, MPP2, Q14168
T10 sequence (Q14168 180-250, limits assumed, looked up): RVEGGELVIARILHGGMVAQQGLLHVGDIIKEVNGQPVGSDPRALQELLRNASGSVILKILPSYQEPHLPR

NHERF4_1, Q86UT5-2 = target: NHERF4_1, Q86UT5-2
GORASP2, Q9H8Y8 = target: GORASP2, Q9H8Y8
TX1BP3, O14907 = target: T11, TX1BP3, O14907
T11 sequence (O14907 10-122, limits assumed, looked up): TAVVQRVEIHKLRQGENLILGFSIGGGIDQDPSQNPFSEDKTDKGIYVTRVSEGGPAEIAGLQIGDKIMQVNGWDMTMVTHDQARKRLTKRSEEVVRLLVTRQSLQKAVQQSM

[1] = plain residues with an end cap or a label only (N-terminal biotin on a linker: ttds)
[2] = plain residues with an end cap or a label only (N-terminal biotin on a linker: ahx)
[3] = plain residues with an end cap or a label only (N-terminal biotin on a linker: ado-ado, ttds)

Chain of FRMPD2_2, Q68DX3 (Q68DX3 944-1038): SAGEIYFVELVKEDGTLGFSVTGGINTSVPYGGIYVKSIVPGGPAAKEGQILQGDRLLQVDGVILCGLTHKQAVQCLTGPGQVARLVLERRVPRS
Chain of NHERF4_4, Q86UT5 (Q86UT5 464-550): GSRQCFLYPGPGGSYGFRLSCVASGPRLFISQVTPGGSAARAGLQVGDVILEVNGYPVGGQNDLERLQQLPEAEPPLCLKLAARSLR
Chain of Inadl_1, Q8NI35 (Q8NI35 113-229): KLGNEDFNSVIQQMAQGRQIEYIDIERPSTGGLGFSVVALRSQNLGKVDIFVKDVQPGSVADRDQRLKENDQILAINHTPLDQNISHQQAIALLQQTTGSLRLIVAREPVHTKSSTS
Chain of GRASP, Q7Z6J2 (Q7Z6J2 96-193): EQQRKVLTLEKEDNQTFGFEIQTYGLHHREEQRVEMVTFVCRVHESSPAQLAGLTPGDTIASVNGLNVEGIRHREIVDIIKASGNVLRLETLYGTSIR
Chain of MAGI2_3, Q86UL8 (Q86UL8 600-682): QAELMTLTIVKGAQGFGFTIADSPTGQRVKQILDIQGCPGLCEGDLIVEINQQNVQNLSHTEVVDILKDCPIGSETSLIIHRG
Chain of FRMPD4, Q14CM0 (Q14CM0 67-160): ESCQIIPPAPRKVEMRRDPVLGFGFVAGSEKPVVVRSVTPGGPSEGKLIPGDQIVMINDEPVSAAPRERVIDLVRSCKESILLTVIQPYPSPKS
Chain of Inadl_10, Q8NI35 (Q8NI35 1673-1763): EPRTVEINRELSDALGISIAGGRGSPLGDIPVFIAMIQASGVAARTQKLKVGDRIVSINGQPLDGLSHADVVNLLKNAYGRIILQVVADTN
Chain of GRIP2_5, Q9C0E4 (Q9C0E4 544-642): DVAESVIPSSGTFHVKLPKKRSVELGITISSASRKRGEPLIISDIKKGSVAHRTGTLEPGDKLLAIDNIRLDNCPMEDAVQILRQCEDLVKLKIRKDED
Chain of NHERF4_1, Q86UT5-2 (Q86UT5 other isoform, or with tags, fused parts or gaps): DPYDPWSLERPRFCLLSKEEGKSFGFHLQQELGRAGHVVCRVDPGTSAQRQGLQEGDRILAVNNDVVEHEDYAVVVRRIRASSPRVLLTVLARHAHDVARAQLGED
Chain of AHNAK1, Q09666 (Q09666 4-100): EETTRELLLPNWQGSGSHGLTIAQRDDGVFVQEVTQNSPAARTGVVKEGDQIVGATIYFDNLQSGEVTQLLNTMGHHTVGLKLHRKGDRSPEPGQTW
Chain of GRID2IP_1, A4D2P6 (A4D2P6 1-87): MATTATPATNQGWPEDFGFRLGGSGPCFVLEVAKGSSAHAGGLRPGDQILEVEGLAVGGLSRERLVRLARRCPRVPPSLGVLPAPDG
Chain of PTPN3, P26045 (P26045 505-587): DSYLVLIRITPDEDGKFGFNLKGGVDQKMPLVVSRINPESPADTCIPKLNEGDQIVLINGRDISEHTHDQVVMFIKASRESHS
Chain of DLG4_2, P78352 (P78352 155-259): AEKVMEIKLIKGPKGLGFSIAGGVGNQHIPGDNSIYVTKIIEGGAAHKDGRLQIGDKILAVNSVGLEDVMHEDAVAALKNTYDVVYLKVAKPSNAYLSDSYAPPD

B1: SLC15A5, A6NIM6 (peptide)
chain: SSIDLWETAL
- pKd (MAGI2_3, Q86UL8; [1]): below the threshold
- pKd (Inadl_1, Q8NI35; [1]): below the threshold
- pKd (PCLO, Q9Y6V0; [1]): below the threshold
- pKd (DLG4_2, P78352; [1]): 4.22
- pKd (FRMPD1, Q5SYB0; [1]): below the threshold
- pKd (ARHGEF11, O15085; [1]): 5.24
- pKd (APBA1_2, Q02410; [1]): 4.29
- pKd (GRIP2_5, Q9C0E4; [1]): below the threshold
- pKd (FRMPD4, Q14CM0; [1]): 5.35
- pKd (GRIP1_3, Q9Y3R0; [1]): below the threshold
- pKd (GRID2IP_1, A4D2P6; [1]): below the threshold
- pKd (SNTG2, Q9NY99; [1]): 5.2
- pKd (GRASP, Q7Z6J2; [1]): 5.28
- pKd (FRMPD2_2, Q68DX3; [1]): 4.3
- pKd (Inadl_10, Q8NI35; [1]): 4.17
- pKd (NHERF4_4, Q86UT5; [1]): 4.4
- pKd (DLG2_3, Q15700; [1]): 3.73
- pKd (LIN7A, O14910; [1]): 4.27
- pKd (AHNAK1, Q09666; [1]): below the threshold
- pKd (LIN7B, Q9HAP6; [1]): 4.92
- pKd (DLG1_1, Q12959; [1]): 4.43
- pKd (GRIP1_7, Q9Y3R0; [1]): below the threshold
- pKd (PTPN3, P26045; [1]): 5.4
- pKd (MPP2, Q14168; [1]): below the threshold
- pKd (NHERF4_1, Q86UT5-2; [1]): 4.71
- pKd (GORASP2, Q9H8Y8; [1]): below the threshold
- pKd (TX1BP3, O14907; [1]): 5.24

B2: NHERF1, O14745 (peptide)
chain: SKKNELFSNL
- pKd (MAGI2_3, Q86UL8; [2]): below the threshold
- pKd (Inadl_1, Q8NI35; [2]): below the threshold
- pKd (PCLO, Q9Y6V0; [2]): below the threshold
- pKd (DLG4_2, P78352; [2]): below the threshold
- pKd (FRMPD1, Q5SYB0; [2]): below the threshold
- pKd (ARHGEF11, O15085; [2]): below the threshold
- pKd (APBA1_2, Q02410; [2]): 3.48
- pKd (GRIP2_5, Q9C0E4; [2]): below the threshold
- pKd (FRMPD4, Q14CM0; [2]): below the threshold
- pKd (GRIP1_3, Q9Y3R0; [2]): below the threshold
- pKd (GRID2IP_1, A4D2P6; [2]): below the threshold
- pKd (SNTG2, Q9NY99; [2]): below the threshold
- pKd (GRASP, Q7Z6J2; [2]): below the threshold
- pKd (FRMPD2_2, Q68DX3; [2]): below the threshold
- pKd (Inadl_10, Q8NI35; [2]): below the threshold
- pKd (NHERF4_4, Q86UT5; [2]): below the threshold
- pKd (DLG2_3, Q15700; [2]): below the threshold
- pKd (LIN7A, O14910; [2]): below the threshold
- pKd (AHNAK1, Q09666; [2]): below the threshold
- pKd (LIN7B, Q9HAP6; [2]): below the threshold
- pKd (DLG1_1, Q12959; [2]): below the threshold
- pKd (GRIP1_7, Q9Y3R0; [2]): below the threshold
- pKd (PTPN3, P26045; [2]): below the threshold
- pKd (MPP2, Q14168; [2]): below the threshold
- pKd (NHERF4_1, Q86UT5-2; [2]): below the threshold
- pKd (GORASP2, Q9H8Y8; [2]): below the threshold
- pKd (TX1BP3, O14907; [2]): below the threshold

B3: HPV82-E6, Q9IR59 (peptide)
chain: PPRQRSETQV
- pKd (MAGI2_3, Q86UL8; [1]): 3.73
- pKd (Inadl_1, Q8NI35; [1]): below the threshold
- pKd (PCLO, Q9Y6V0; [1]): below the threshold
- pKd (DLG4_2, P78352; [1]): 4.9
- pKd (FRMPD1, Q5SYB0; [1]): below the threshold
- pKd (ARHGEF11, O15085; [1]): 3.74
- pKd (APBA1_2, Q02410; [1]): below the threshold
- pKd (GRIP2_5, Q9C0E4; [1]): below the threshold
- pKd (FRMPD4, Q14CM0; [1]): below the threshold
- pKd (GRIP1_3, Q9Y3R0; [1]): below the threshold
- pKd (GRID2IP_1, A4D2P6; [1]): below the threshold
- pKd (SNTG2, Q9NY99; [1]): 4
- pKd (GRASP, Q7Z6J2; [1]): below the threshold
- pKd (FRMPD2_2, Q68DX3; [1]): below the threshold
- pKd (Inadl_10, Q8NI35; [1]): below the threshold
- pKd (NHERF4_4, Q86UT5; [1]): below the threshold
- pKd (DLG2_3, Q15700; [1]): 4.9
- pKd (LIN7A, O14910; [1]): below the threshold
- pKd (AHNAK1, Q09666; [1]): below the threshold
- pKd (LIN7B, Q9HAP6; [1]): below the threshold
- pKd (DLG1_1, Q12959; [1]): 4.75
- pKd (GRIP1_7, Q9Y3R0; [1]): below the threshold
- pKd (PTPN3, P26045; [1]): 4.31
- pKd (MPP2, Q14168; [1]): below the threshold
- pKd (NHERF4_1, Q86UT5-2; [1]): below the threshold
- pKd (GORASP2, Q9H8Y8; [1]): 4.12
- pKd (TX1BP3, O14907; [1]): 4.14

B4: KCNA4, P22459 (peptide)
chain: SNAKAVETDV
- pKd (MAGI2_3, Q86UL8; [3]): 3.54
- pKd (Inadl_1, Q8NI35; [3]): below the threshold
- pKd (PCLO, Q9Y6V0; [3]): below the threshold
- pKd (DLG4_2, P78352; [3]): 5.19
- pKd (FRMPD1, Q5SYB0; [3]): below the threshold
- pKd (ARHGEF11, O15085; [3]): 3.59
- pKd (APBA1_2, Q02410; [3]): 3.5
- pKd (GRIP2_5, Q9C0E4; [3]): below the threshold
- pKd (FRMPD4, Q14CM0; [3]): below the threshold
- pKd (GRIP1_3, Q9Y3R0; [3]): below the threshold
- pKd (GRID2IP_1, A4D2P6; [3]): below the threshold
- pKd (SNTG2, Q9NY99; [3]): 4.28
- pKd (GRASP, Q7Z6J2; [3]): below the threshold
- pKd (FRMPD2_2, Q68DX3; [3]): 3.52
- pKd (Inadl_10, Q8NI35; [3]): below the threshold
- pKd (NHERF4_4, Q86UT5; [3]): below the threshold
- pKd (DLG2_3, Q15700; [3]): below the threshold
- pKd (LIN7A, O14910; [3]): below the threshold
- pKd (AHNAK1, Q09666; [3]): below the threshold
- pKd (LIN7B, Q9HAP6; [3]): below the threshold
- pKd (DLG1_1, Q12959; [3]): 4.72
- pKd (GRIP1_7, Q9Y3R0; [3]): below the threshold
- pKd (PTPN3, P26045; [3]): 4.53
- pKd (MPP2, Q14168; [3]): below the threshold
- pKd (NHERF4_1, Q86UT5-2; [3]): below the threshold
- pKd (GORASP2, Q9H8Y8; [3]): below the threshold
- pKd (TX1BP3, O14907; [3]): 4.49

Reference: paper PMC9482650, “Quantitative fragmentomics allow affinity mapping of interactomes” (Nature Communications, 2022)
